Reference: the supplement of paper PMC11502859

Test system: HEK293T
Test: median enrichment of reporter reads in eGFP-reduced (low/intermediate) vs eGFP-high sorted cells (eGFP-extension fusion abundance) (ratio); higher = stronger loss of eGFP-fusion protein abundance (more destabilising extension)
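Also: lentiviral eGFP-IRES-mCherry reporter pool sorted by FACS 96 h post-transduction, gated on mCherry-high cells, Illumina read counts normalized per million, median across four biological replicates.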

Chain of CASP8 (chain, as listed by the source): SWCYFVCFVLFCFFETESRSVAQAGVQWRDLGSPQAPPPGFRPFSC

Substance | median enrichment
YKKEKKAKKKK [IQCA1] | 0.422
YVLCCIPFSFLQMTMNFKLWGQCCNIFTFSNSQNLKNVKLCLVCFS [INPP4B] | 5.86
YWELLWQVPPE [C1orf115] | 3.92
CASP8 | 22.5
LGHRQESVWAGLFNMVFAVLPPWGPWSDNIVSLVRLSRCLIRTANGASPTPPRVRPPFHQRVSSQRPPASCPAAQEEKEGLNS [PDGFB] | 4.11
LRASPRRDGKKIYKYISF [CYP2U1] | 7.5
YPSLCHWVECAFRAS [ARHGEF6] | 7.57
RDSSP [CD1C] | 0.413
SRMGLSL [APOBEC3G] | 0.634
YWENPLLVHLKTPNSTIICQEIKRTTP [PCP4] | 13.6
GRRADSLAAPVLSPAILPYQGHWPLPSLCEGYFL [CYP2C18] | 17
RKWNS [GCSH] | 0.655
WAWTLEKEARSQPLAGQGRRPQEPSPPLLCVGTGGPWPVPGHSGQGPRDISTRSWRAVRIHSACPALAGQRQGRTFGKTKTVG [TCF15] | 5.34
LNKLKMDLFFFNGNRTLCQITSYRNNSLFLTNLVLPYTSTGF [PTEN] | 9.05
YAAIDSRSLYTVTSEDYT [SLC46A3] | 6.41
QLRILKRSHGKTS [NBN] | 7.35
RGALVSPQSSQAAGSPRQLSGHPVPSAPPSAALCSRPAPPSRGCLGLFTCFPSHINTVFPLLSYNSPTAHSPPH [TNFSF12] | 8.64
QPPAILPHPPPSPPVSTWSALPHPPPTELGCITFFHLKERSRF [MROH5] | 4.47
RTCGRPF [CMTM1] | 6.49
LRRRMSLRAPSWSGPRHPGTSALPPPALLHHMSS [ADHFE1] | 18.5

Substance | median enrichment
QCMSLV [CCDC6] | 0.689
SPF [SDHD] | 0.337
PEPGWGISAGQRRRLSQLFPDIQGHCSLLPSRTSLLPPTMAGGEQVSQKHPVPRMVLCACPSLLGLPFPLLREDVSLLTCTLA [KIRREL1] | 4.27
WLVTEDEDNSITKLF [CD58] | 17.6
KKKKK [Lys05] | 0.46
YYCTELP [ADAM18] | 4.78
WVVGSPADGSTWTWG [GABARAPL1] | 6.43
YDTP [CD1A] | 0.395
YYVIRNLVAWPYLAAREPGRYVAGRLGMCPVKNSVDSLIKKKRKKDTMGTLYLVFILCMYRSSKKLHRISVTLYASGKQDWEL [CFAP61] | 41.5
RRSPVCPVKTEIN [TM9SF2] | 0.793
CPAVGMAGLPGQTR [SLC25A10] | 0.543
YPCTISPSSFLGQPGPALVCGDWRDQERVWRPPEGCCLPGLQ [MLST8] | 5.76
WLQTC [RAB39A] | 5.31
SKQVTDLF [FOXN3] | 0.53
WGPGSLHASALAPAGSKHRACPPHPEDLRAMPVPPHAGGCLGHLPAH [RHPN1] | 3.51
GGPSV [NDUFV3] | 0.139
SPELTAQSVDRASVRRHRERPGGSLSMDSQTAGEHLGQPPEGPLLDPRENLLALAVILE [ICOSLG] | 2.2
WIPQGTTEAKELEVFSRGTDGLRALMMLPEVCKSFMS [LOR] | 10.9
RERTTPSLPSMDGHSSAASSATSCSQPMPGGAAIFSPHHPFTHS [EHMT2] | 0.484
LPGAGGWTC [PTH1R] | 1.02

Substance | median enrichment
SEVIFL [CES5A] | 1.39
LVSCLKGGNRKSRLLSVKFVLPVCC [PCMTD2] | 7.69
RAPPLTEAAPPTAPNKNVKTNPRT [NDUFA3] | 0.588
RAWVLTPGRATLSDLKMRILGTGCLSPQQNQNESLKAQDSAFATLPLSWYRRWM [ZNF410] | 8.88
GWGLQGRGLAPFSLSY [NR1H4] | 13.8
WKRLGRGSGRGLSPPEAGKESLFSHMIFRVLETHSCRSCRTLEFLGNCPAS [GPR83] | 13.9
SGAGPGPRGGTSINSVAKLE [MYL7] | 0.743
KTTFPKENIRGFHC [CPVL] | 0.477
LVVAGPGPRPCPGPDSLSHVPSPRLPRTLSLPRPQP [MAFB] | 9.74
CGRTSALSDRTLRAMLPCHP [MRGPRX3] | 6.32
LLLL [Leu04] | 9.42
QGIQGTAL [CXorf26] | 0.941
GGGTGLTF [CARS] | 0.299
YFVLRTDFLPIPFLNIQRLYWPVSFYFFPPDKYFRS [STMN1] | 15.2
CGILGDSPREELGC [CEP85] | 0.759
GAMLPSSSSPPSTGWDRRQVPAHACLRLFPPLGQALGWKLGS [ADCYAP1R1] | 9.03
SEELPGRTQDAEPRSLPG [ACAN] | 0.794
FFF [Phe03] | 5.17
KFRSPHFSAPRMVLFIFHHL [SLC43A3] | 9.56
